Experimental data published in patent US20220033439A1 (SEOUL NATIONAL UNIVERSITY R AND DB FOUNDATION, published 2022).

B1: Mycobacterium tuberculosis toxin protein VapC26 (enzyme)
chain: MIIDTSALLAYFDAAEPDHAAVSECIDSSADALVVSPYVVAELDYLVATRVGVDAELAVLRELAGGAWELANCGAAEIEQAARIVTKYQDQRIGIADAANVVLADRYRTRTILTLDRRHFSALRPIGGGRFTVIP
B2: Mycobacterium tuberculosis antitoxin protein VapB26 (other)
chain: MDKTTVYLPDELKAAVKRAARQRGVSEAQVIRESIRAAVGGAKPPPRGGLYAGSEPIARRVDELLAGFGER

Experiments:
[1] = target: the molecule itself; experiment: crystal structure; VapC26 homodimer
[2] = target: the molecule itself; experiment: crystal structure and size exclusion chromatography with MALS; VapB26 homodimer
[3] = target: B1; experiment: size exclusion chromatography with multi-angle light scattering

Row | Binder | binding result [1] | binding result [2] | binding result [3]
1 | B1 | binds |  | 
2 | B2 |  | binds | binds
